The text below walks through data of publication PMC7187366.

Data set [1] addresses T1, OsPIL15 (Oryza sativa, UniProt Q0JNI9 1-637).
T1 sequence: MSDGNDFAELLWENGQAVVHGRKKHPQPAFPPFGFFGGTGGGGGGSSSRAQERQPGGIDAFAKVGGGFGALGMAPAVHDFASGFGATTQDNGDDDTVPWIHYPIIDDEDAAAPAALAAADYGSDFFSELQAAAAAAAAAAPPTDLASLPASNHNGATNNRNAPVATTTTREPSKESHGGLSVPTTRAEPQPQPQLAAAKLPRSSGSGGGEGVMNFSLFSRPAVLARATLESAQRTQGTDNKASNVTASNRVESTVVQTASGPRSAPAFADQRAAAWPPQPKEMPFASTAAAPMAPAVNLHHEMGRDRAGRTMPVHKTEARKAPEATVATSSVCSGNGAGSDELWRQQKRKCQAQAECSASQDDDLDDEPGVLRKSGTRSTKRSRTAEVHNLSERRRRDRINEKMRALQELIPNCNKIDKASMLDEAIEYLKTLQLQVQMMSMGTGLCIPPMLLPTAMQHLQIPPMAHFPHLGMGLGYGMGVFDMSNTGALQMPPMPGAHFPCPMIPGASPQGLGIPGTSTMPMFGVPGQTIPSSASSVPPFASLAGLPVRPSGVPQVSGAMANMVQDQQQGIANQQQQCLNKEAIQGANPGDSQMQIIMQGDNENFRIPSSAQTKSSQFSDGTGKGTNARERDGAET
Kind of data set: competition.

Data set [2] addresses T1, OsPIL15. Kind of data set: competition. This is another data set of the same source.

Like-named read-outs stand apart in the source and are kept apart here.

B1: Probe Am (mutant G-boxes) (dsDNA)
DNA 1: TGATCTGACTTTAAACCGGTGACTTTCGCC
DNA 2: GGCGAAAGTCACCGGTTTAAAGTCAGATCA
With B1, the binding result with OsPIL15 [1] is on record as “no binding”.

B2: Probe Bm (mutant G-box) (dsDNA)
DNA 1: ATTTTCCTGACTTCACTATGACTTGTT
DNA 2: AACAAGTCATAGTGAAGTCAGGAAAAT
On to B2, for which the binding result in the data set with OsPIL15 [2] was “no binding”.
